This note sets out measurements from PMC3124540, “A Minimum of Three Motifs Is Essential for Optimal Binding of Pseudomurein Cell Wall-Binding Domain of Methanothermobacter thermautotrophicus” (PLoS ONE, 2011).

The data set concerns the molecule itself. Kind of data set: SEC; Superdex 200 10/300 GL, room temperature, 50 mM NaH2PO4, 150 mM NaCl, pH 7.0; calibrated with globular proteins. A general note: Size exclusion chromatography separates by hydrodynamic size, large species first.

B1: three pseudomurein binding motifs with C-terminal ten-Histidine tag (3P-His10), the PMB domain of MTH719 (domain or fragment, Methanothermobacter thermautotrophicus)
chain: MGGGFAASVKISVRQLTDAASWVRAYYGRYGRLPGKVTISGHGYSMAQFLYLLCRATVNINAGNVAPISVKSVASAPASGGWYRHGRLYRSSYVRVAKNILSFIDSRGRAPNYAITGLGRIPFQRLVYMYSKIIKFYGTNKRLPNYVTI
notes: short N-terminal peptide region resulting from the cloning procedure (LIC); also called PMB domain 3P-His10; 3P-His10 PMB domain; source: E. coli Rosetta gami 2 (pBADcLIC, arabinose induced), purified (Ni-NTA); not shown: His10, C-terminal, kept
As to B1, the binding result is “binds”.
